Blank lines part the entries; values can stand above or below the binder they belong to.
Experiments:
human SIRPα variant 1 [1] = target: T1, human SIRPα variant 1 (human, UniProt P78324 31-504); experiment: CELISA, CHO-K1 transfectants
T1 construct: full length ORF on transfected CHO-K1 or HEK293 cells; entry includes the signal peptide; also called hSIRPαV1; SIRPαV1
Protocol: (§1) The binding specificity of antibodies hSIRPα.40A and hSIRPα.50A to hSIRPα were compared in a CELISA format. In short, CHO-K1 cells were transiently transfected with hSIRPαV1, hSIRPαV2, hSIRPβ1, hSIRPβL, and hSIRPγ cDNAs. Subsequently, hSIRPα binding was assessed by CELISA using CHO-K1.hSIRPαV1, CHO-K1.hSIRPαV2, CHO-K1.hSIRPβ1, CHO-K1.hSIRPβL, and CHO-K1.hSIRPγ cells. Detection of bound antibody was done with goat-anti-mouse IgG-HRP (Southern Biotech).
(§2) In addition, the specificity of hSIRPα.40A for all known of hSIRPα alleles (allelic variants as described by Takenaka et al., Nat Immunol. 8:1313-1323 (2007) was further investigated by CELISA using the same strategy as above. To this end, hSIRPα.40A binding was assessed using CHO-K1 cells that were transiently transfected with cDNAs encoding full length hSIRPαV1, hSIRPαV2, hSIRPαV3 (NA07056_V3) (SEQ ID NO: 44), hSIRPαV4 (NA11832_V4) (SEQ ID NO: 46), hSIRPαV5 (NA18502_V5) (SEQ ID NO: 48), hSIRPαV6 (NA18507_V6) (SEQ ID NO: 50), hSIRPαV8 (NA18570_V8) (SEQ ID NO: 52), and hSIRPαV9 (NA18943_V9) (SEQ ID NO: 54).

hSIRPαV5 (NA18502_V5) = target: T2, hSIRPαV5 (NA18502_V5) (human, UniProt P78324 31-504); experiment: CELISA, CHO-K1 transfectants
T2 construct: also called human SIRPαV5
Protocol: as §1, §2

hSIRPαV6 (NA18507_V6) = target: T3, hSIRPαV6 (NA18507_V6) (human, UniProt P78324 31-504); experiment: CELISA, CHO-K1 transfectants
T3 construct: also called human SIRPαV6
Protocol: as §1, §2

hSIRPαV9 (NA18943_V9) = target: T4, hSIRPαV9 (NA18943_V9) (human, UniProt P78324 31-504); experiment: CELISA, CHO-K1 transfectants
T4 construct: also called human SIRPαV9
Protocol: as §1, §2

human SIRPα variant 1 [2] = target: T1, human SIRPα variant 1; experiment: CELISA, CHO-K1 transfectants, domain exchange study
Source text: (§3) Based on the fold of SIRPα/β1/γ, the extracellular region can be subdivided into three separate domains: the Ig-like (immunoglobulin-like) V-type (IgV), Ig-like C1-type (IgC1), and Ig-like C2-type (IgC2) domain. The IgV domain is also known as the ligand-binding N-terminal domain of SIRPα and SIRPγ (which binds to CD47). The human SIRPβ1/γ mutants were designed based on the full length hSIRPβ1 sequence (SEQ ID NO: 38) and each individual Ig-like domain was substituted for the equivalent domain of human SIRPγ (SEQ ID NO: 40). […] Binding of hSIRPα.40A to the exchange mutants was tested using CELISA. To this end, CHO-K1 cells were transiently transfected, using Lipofectamine 2000, with the pCI-neo vectors encoding hSIRPαV1, hSIRPαV2, hSIRPβ1, hSIRP-VγC1βC2β, hSIRP-VβC1γC2β, and hSIRP-VβC1βC2γ, respectively. The transfected cells were cultured at 37° C., 5% CO₂ and 95% humidity in medium (DMEM-F12 (Gibco) with 5% New Born Calf serum (Biowest) and Pen/Strep (Gibco)) until confluent. Subsequently, cells were trypsinized and seeded in 96-well flat-bottom tissue culture plates and cultured at 37° C., 5% CO₂ and 95% humidity in culture medium until confluent. Then, culture medium was removed and cells were incubated for 1 hour at 37° C., 5% CO₂ and 95% humidity with hSIRPα.40A, hSIRPα.50A, and anti-hSIRPα clone SE5A5 antibodies. Next, cells were washed with PBS-T and incubated for 1 hour at 37° C., 5% CO₂ and 95% humidity with goat-anti-mouse IgG-HRP conjugate (Southern Biotech). After that, cells were washed three times with PBS-T and anti-hSIRPα immunoreactivity was visualized with TMB Stabilized Chromogen (Invitrogen). Reactions were stopped with 0.5 M H₂SO₄ and absorbances were read at 450 and 610 nm.
Target sequence in this assay (P78324 31-504 limits assumed, change not shown): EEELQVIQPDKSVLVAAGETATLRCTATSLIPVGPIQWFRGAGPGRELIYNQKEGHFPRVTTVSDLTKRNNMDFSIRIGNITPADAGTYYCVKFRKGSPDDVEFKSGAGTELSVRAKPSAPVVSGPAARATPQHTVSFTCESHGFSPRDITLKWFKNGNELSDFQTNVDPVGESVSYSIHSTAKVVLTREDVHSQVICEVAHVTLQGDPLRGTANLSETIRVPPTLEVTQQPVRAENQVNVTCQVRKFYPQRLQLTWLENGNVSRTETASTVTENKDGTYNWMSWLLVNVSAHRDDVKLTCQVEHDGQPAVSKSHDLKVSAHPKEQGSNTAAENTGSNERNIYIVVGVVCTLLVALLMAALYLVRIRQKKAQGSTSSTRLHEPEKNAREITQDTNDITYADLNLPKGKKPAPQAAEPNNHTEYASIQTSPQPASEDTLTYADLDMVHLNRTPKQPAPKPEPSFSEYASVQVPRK

human SIRPα variant 2 [3] = target: T5, human SIRPα variant 2 (human, UniProt P78324 31-504); experiment: as above
T5 construct: full length ORF on transfected CHO-K1 cells; also called hSIRPαV2; SIRPαV2
T5 sequence (P78324 other isoform, or with tags, fused parts or gaps mutant limits assumed): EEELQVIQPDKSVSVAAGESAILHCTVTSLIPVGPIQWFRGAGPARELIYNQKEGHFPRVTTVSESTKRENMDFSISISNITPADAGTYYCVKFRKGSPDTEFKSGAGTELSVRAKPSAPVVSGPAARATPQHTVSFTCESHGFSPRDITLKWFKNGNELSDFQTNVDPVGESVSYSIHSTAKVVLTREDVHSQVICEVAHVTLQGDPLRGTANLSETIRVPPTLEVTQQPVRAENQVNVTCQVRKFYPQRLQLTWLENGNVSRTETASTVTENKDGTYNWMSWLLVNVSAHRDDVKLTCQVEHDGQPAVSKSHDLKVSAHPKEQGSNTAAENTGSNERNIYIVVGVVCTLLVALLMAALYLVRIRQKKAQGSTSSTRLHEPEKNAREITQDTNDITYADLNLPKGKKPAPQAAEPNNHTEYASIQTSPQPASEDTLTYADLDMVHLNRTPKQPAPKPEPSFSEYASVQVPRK
Source text: as §3

human SIRPα variant 1 [4] = target: T1, human SIRPα variant 1; experiment: CELISA, CHO-K1 transfectants; average of two experiments
Protocol: (§4) The binding specificity of antibody hSIRPα.50A to hSIRPα was compared antibody KWAR23 (Canadian Patent 2939293 A1), in a CELISA format. CHO-K1 cells were transiently transfected with hSIRPαV1, hSIRPαV2, hSIRPβ1, and hSIRPγ (GenBank accession: NM_018556.3) (SEQ ID NO: 39) cDNAs. Subsequently, hSIRPα binding was assessed by CELISA using CHO-K1.hSIRPαV1, CHO-K1.hSIRPαV2, CHO-K1.hSIRPβ1, and CHO-K1.hSIRPγ cells. Detection of bound antibody was performed with goat-anti-mouse IgG-HRP (Southern Biotech) for mouse antibodies including hSIRPα.50A and control antibodies or, alternatively, with goat-anti-human IgG-HRP conjugate (Jackson Immuno Research) for the KWAR23 antibody. KWAR23 (SEQ ID NO: 130; SEQ ID NO: 131) was expressed as a chimeric human IgG4 kappa antibody in CHO cells. As shown in FIG. 2 and the following Table 9, KWAR23 antibody cross-reacts with all members of the SIRP receptor family tested: it binds to hSIRPαV1, hSIRPαV2, hSIRPβ1, and hSIRPγ.

human SIRPα variant 2 [5] = target: T5, human SIRPα variant 2; experiment: as above
Protocol: as §4

human SIRPγ = target: T6, human SIRPγ (human, UniProt Q9P1W8 29-387); experiment: as above
T6 construct: on transfected CHO-K1 cells; also called hSIRPγ
T6 sequence (Q9P1W8 29-387 limits assumed): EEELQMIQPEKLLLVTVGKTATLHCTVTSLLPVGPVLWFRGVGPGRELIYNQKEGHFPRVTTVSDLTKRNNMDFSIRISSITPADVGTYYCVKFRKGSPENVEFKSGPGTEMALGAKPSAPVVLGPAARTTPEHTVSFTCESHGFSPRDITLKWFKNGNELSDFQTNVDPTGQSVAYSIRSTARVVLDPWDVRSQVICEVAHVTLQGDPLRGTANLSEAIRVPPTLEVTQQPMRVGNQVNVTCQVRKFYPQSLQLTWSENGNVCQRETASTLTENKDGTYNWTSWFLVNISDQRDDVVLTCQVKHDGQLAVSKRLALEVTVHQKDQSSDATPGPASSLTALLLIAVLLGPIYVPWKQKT
Protocol: as §4

EC50 (human SIRPα variant 1 [1]): 0.134 nM
EC50 (hSIRPαV5 (NA18502_V5)): 0.115 nM
EC50 (hSIRPαV6 (NA18507_V6)): 0.136 nM
EC50 (hSIRPαV9 (NA18943_V9)): 0.115 nM
EC50 (human SIRPα variant 1 [2]): 0.133 nM
EC50 (human SIRPα variant 2 [3]): 0.101 nM
B1: hSIRPα.40A (antibody, mouse IgG1, kappa, V domains shown)
VH: EVQFQQSGTVLARPGTSVKMSCKASGSTFTSYWMHWVKQGPGQGLQWIGAIYPVNNDTTYNQKFKGKAELTVVTSTSTAYMEVSSLTNEDSAVYYCTRSFYYSLDAAWFVYWGQGTLVTVSA
VL: DIQMTQSPSSLSASLGERVSLTCRASQDIGSRLNWLQQEPDGTIKRLIYATSSLDSGVPKRFSGSRSGSDYSLTISGLESEDFVDYYCLQYASSPFTFGGGTKLEINR
notes: mouse antibody, full chains without signal peptide; also called mouse hSIRPα.40A

EC50 (human SIRPα variant 1 [1]): 1.69 nM
EC50 (hSIRPαV5 (NA18502_V5)): 1.26 nM
EC50 (hSIRPαV6 (NA18507_V6)): 2.22 nM
EC50 (hSIRPαV9 (NA18943_V9)): 1.37 nM
EC50 (human SIRPα variant 1 [2]): 0.968 nM
EC50 (human SIRPα variant 2 [3]): 0.821 nM
EC50 (human SIRPα variant 1 [4]): 1.36 nM
EC50 (human SIRPα variant 2 [5]): 1.3 nM
EC50 (human SIRPγ): 1.25 nM
B2: hSIRPα.50A (antibody, V domains shown)
VH: QVQLQQSGPELVKPGASVRISCKASGFTFTNYYIHWVKQRPGQGLEWIGWIYPGNVNTKYNEKFKAKATLTADKSSTTAYMQLSSLASEDSAVYFCARPTIIATDFDVWGAGTTVTVSS
VL: DIVMTQSHKFMSTSVGDRVNITCKASQGVGTAVGWYQQKPGQSPRLLIYWASTRHTGVPDRFTGSGSGTDFSLAISNVQSEDLADYFCQQYSTYPFTFGGGTNLEIK
notes: light chain constant domain not tied; also called mouse hSIRPα.50A; hSIRPα.50A.mIgG1

EC50 (human SIRPα variant 1 [4]): 0.081 nM
EC50 (human SIRPα variant 2 [5]): 0.051 nM
EC50 (human SIRPγ): 0.04 nM
B3: KWAR23 (antibody, V domains shown)
VH: EVQLQQSGAELVKPGASVKLSCTASGFNIKDYYIHWVQQRTEQGLEWIGRIDPEDGETKYAPKFQDKATITADTSSNTAYLHLSSLTSEDTAVYYCARWGAYWGQGTLVTVSS
VL: QIVLTQSPAIMSASPGEKVTLTCSASSSVSSSYLYWYQQKPGSSPKLWIYSTSNLASGVPARFSGSGSGTSYSLTISSMEAEDAASYFCHQWSSYPRTFGAGTKLELK

Source: US20180312587A1 (ADURO BIOTECH HOLDINGS EUROPE B V, published 2018)
